The values below come from publication PMC11402289, “Structural basis for RNA recognition by the C-terminal RRM domain of human RBM45”.

Sequences and labels used below:
T1: RBM45 RRM3 (Homo sapiens, UniProt Q8IUH3 370-476)
T1 sequence: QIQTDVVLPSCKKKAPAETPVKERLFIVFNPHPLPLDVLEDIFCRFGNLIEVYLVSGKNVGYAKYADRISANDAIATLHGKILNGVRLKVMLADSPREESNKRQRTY

For one series, the target named is T1, RBM45 RRM3. Briefly: fluorescence polarization; also printed as 33.6; FP: 100 nM FAM-RNA/ssDNA, 10 mM Tris-HCl pH 7.5, 200 mM NaCl, 1 mM DTT, 1 mM EDTA, 5% glycerol, 25 °C, 30 min. The conditions noted are these: protein: recombinant; tags: C-terminal His-tag; label: 5'-FAM. For orientation: In fluorescence polarisation assays a small probe gives low polarisation when free and higher when bound to something large.
GGACCG (ssRNA): the Kd (as a rule, the free concentration of one partner at which half of the binding sites on the other are occupied at equilibrium, for simple one-to-one binding) is 32.6 ± 6.22 µM.

For a further series, the target named is T1, RBM45 RRM3. Briefly: fluorescence polarization; FP: 100 nM FAM-RNA/ssDNA, 10 mM Tris-HCl pH 7.5, 200 mM NaCl, 1 mM DTT, 1 mM EDTA, 5% glycerol, 25 °C, 30 min. The following applies: protein: recombinant; tags: C-terminal His-tag; label: 5'-FAM.
As to GGACUG (ssRNA), the Kd was 15.3 ± 2.1 µM. On the same count and under the same terms, as for GCACGG (ssRNA), the figure is 8.88 ± 2.32 µM; as for GAACGG (ssRNA), 10.2 ± 1.97 µM; as for AGACGG (ssRNA), 3.11 ± 0.48 µM. Same read-out and setting: as for GGAGGG (ssRNA), the figure is 61.5 ± 45.7 µM; as for CGACGG (ssRNA), 1.99 ± 0.35 µM.

Turning to GGAAGG (ssRNA), the Kd was determined as 91.6 ± 17.6 µM. On to GGAUGG (ssRNA), for which the Kd was determined as 63.6 ± 12.1 µM.

As to GGACGG (ssDNA) [GGACGG ssDNA], the equilibrium dissociation constant (Kd) was 8.77 ± 0.61 µM. The same measure, in the same setting: as for GGUCGG (ssRNA), the figure is 71.6 ± 16.9 µM; as for UUUUUU (ssRNA) [polyU 6-mer RNA], 199 ± 114 µM. The same measure, in the same setting: then UGACGG (ssRNA), with 2.13 ± 0.37 µM; and GGCCGG (ssRNA), with 71 ± 16.1 µM; and GGGCGG (ssRNA), with 59.3 ± 21.2 µM. On the same count and under the same terms, then GGACGA (ssRNA), with 1.16 ± 0.27 µM.

Take GGACGG (ssRNA) [GGACGG RNA]: the equilibrium dissociation constant (Kd) turned out to be 2.34 ± 0.38 µM.

Take GGACAG (ssRNA): the Kd is 28.1 ± 6.62 µM. On the same count and under the same terms, as for GGACGG (ssRNA, m6A at position 3) [GG(m6A)CGG RNA], the figure is 4.62 ± 0.55 µM; as for GGACGC (ssRNA), 1.08 ± 0.21 µM. Turning to GUACGG (ssRNA), the equilibrium dissociation constant (Kd) stood at 9.31 ± 1.93 µM.

For the molecule GGACGU (ssRNA), the Kd turned out to be 1.21 ± 0.26 µM.

The next series deals with T1, RBM45 RRM3. Briefly: X-ray crystallography; 1.65 A; 0.1 M sodium succinate pH 5.3, 8% PEG 2000; FP: 100 nM FAM-RNA/ssDNA, 10 mM Tris-HCl pH 7.5, 200 mM NaCl, 1 mM DTT, 1 mM EDTA, 5% glycerol, 25 °C, 30 min. The conditions noted are these: protein: recombinant; tags: C-terminal His-tag.
As to GACGCAG (ssDNA) [GACGCAG ssDNA], the binding result was “binds”.

Another series concerns the target T1, RBM45 RRM3. Briefly: fluorescence polarization; m6A comparison experiment; FP: 100 nM FAM-RNA/ssDNA, 10 mM Tris-HCl pH 7.5, 200 mM NaCl, 1 mM DTT, 1 mM EDTA, 5% glycerol, 25 °C, 30 min. The conditions noted are these: protein: recombinant; tags: C-terminal His-tag; label: 5'-FAM.
As for GGACGG (ssRNA) [GGACGG RNA], the Kd turned out to be 3.17 ± 0.3 µM.
